Experimental data as given in article PMC11718230 (Nature Communications, 2025).

T1: ATTO647N-STX17 SNARE domain (residues 161-231, E198C) (UniProt P56962 161-231, E198C, ATTO647N maleimide conjugated (cysteine introduced by E198C))
T1 sequence (looked up): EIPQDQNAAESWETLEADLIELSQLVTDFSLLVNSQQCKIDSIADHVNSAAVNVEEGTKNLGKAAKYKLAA

B1: ATTO550-VAMP8 SNARE domain (10-74, E39C) (domain or fragment, UniProt Q9BV40 10-74, looked up)
chain: NDRVRNLQSEVEGVKNIMTQNVERILARGC(ATTO550 maleimide)NLEHLRNKTEDLEATSEHFKTTSQKVARKFWWKNV
B2: ATTO550-VAMP7 SNARE domain (residues 123-187, E152C) (domain or fragment, UniProt P51809 123-187, looked up)
chain: LDKVMETQAQVDELKGIMVRNIDLVAQRGC(ATTO550 maleimide)RLELLIDKTENLVDSSVTFKTTSRNLARAMCMKNL

Target: T1, ATTO647N-STX17 SNARE domain (residues …)
Experiment: FRET or BRET

Binder	binding result
B1	binds
B2	binds
